Laboratory results as given in US20210139593A1 (UNIVERSIDAD DE CHILE, published 2021).

Target: T1, recombinant MICA (rMICA) (UniProt Q29983 24-307, limits assumed)
T1 construct: Recombinant MICA coated on ELISA plates
T1 sequence (looked up): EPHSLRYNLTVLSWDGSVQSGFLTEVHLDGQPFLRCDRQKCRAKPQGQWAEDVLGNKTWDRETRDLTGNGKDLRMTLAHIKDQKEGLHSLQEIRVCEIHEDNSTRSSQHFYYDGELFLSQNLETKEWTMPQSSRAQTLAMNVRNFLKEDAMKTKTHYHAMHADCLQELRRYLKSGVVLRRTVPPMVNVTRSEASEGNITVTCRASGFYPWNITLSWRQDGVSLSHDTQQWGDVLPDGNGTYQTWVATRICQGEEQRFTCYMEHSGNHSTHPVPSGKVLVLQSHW
Test: method not stated

B1: anti-MICA scFv protein (scFv-aMICA) (scFv)
scFv: EFGVVMTQSPDFQSVTPKEKVTITCRASQSIGRSIHWYQQKPDQSPKLLVMYASQSFSGVPSRFSGSGSGTDFTLTINSLEAEDAATYYCHQSYSVPRSFGQGTKLEIKRTVAAGGSSRSSSSGGGGSGGGGQVQLQESGPGLVKPSQTLSLTCTVSGDSVRSAYSSWNWIRQPPGKGLEWIGQIHPNGNTYYNPSLMSRITVSIDTSKNQFSLKLDSVTAADTAVYFCATEGVTSESGSFDIWGQGRMVIVSSASTKGPSVAS
notes: Monomeric soluble scFv produced from the phagemid pUCH1 Amber; also called scFv-MICA
Ka: 7.4e+06 M⁻¹
Kd: 135 nM
